Test results taken from paper PMC3271077.
Read-outs that look alike come from different tables or passages of the source.

How the values were obtained:
Test in all cases: SPR; Biacore 3000; HopZ1a proteins, GST or BSA immobilised on CM5 chips by amine coupling; 500 µg/ml (Figure S1A: 250 µg/ml) tubulin injected; 25°C, HBS-EP running buffer (0.01 M HEPES pH 7.4, 0.15 M NaCl, 3 mM EDTA, 0.005% Surfactant P20)
[1] = target: GST-HopZ1a (Pseudomonas syringae pv. syringae A2) (UniProt Q6VE93)
[2] = target: HIS-HopZ1a(C216A) (Pseudomonas syringae pv. syringae A2) (UniProt Q6VE93)
[3] = target: HIS-HopZ1a (Pseudomonas syringae pv. syringae A2) (UniProt Q6VE93)
[4] = target: HIS-HopZ1a (Pseudomonas syringae pv. syringae A2) (UniProt Q6VE93); remark: listed apart in the source
[5] = target: HIS-HopZ1a(K289R) (Pseudomonas syringae pv. syringae A2) (UniProt Q6VE93)

Substance	RU difference [1] [RU]	RU difference [2] [RU]	RU difference (250 µg/ml tubulin) [2] [RU]	RU difference [3] [RU]	RU difference (250 µg/ml tubulin) [3] [RU]	RU difference (6973 RU HIS-HopZ1a immobilised) [3] [RU]	RU difference (13598 RU HIS-HopZ1a immobilised) [3] [RU]	RU difference (18289 RU HIS-HopZ1a immobilised) [3] [RU]	RU difference [4] [RU]	RU difference [5] [RU]
bovine brain tubulin heterodimers (from UniProt Q6B856 1-445) (complex)	36	1150	463	1050	630	59	324	615	117	186
soybean tubulin (complex)	305	–	–	1230	–	–	–	–	–	–
